Consider 12 molecules from patent US20220064329A1 (Novo Nordisk, published 2022).

Residue numbers refer to the chain shown, from its start.

First the molecules themselves.
T1: recombinant human activated Factor VII (FVIIa) (human, UniProt P08709 61-212; P08709 213-466, Gla domain: ten glutamate residues may be gamma-carboxylated)
T1 sequence 1: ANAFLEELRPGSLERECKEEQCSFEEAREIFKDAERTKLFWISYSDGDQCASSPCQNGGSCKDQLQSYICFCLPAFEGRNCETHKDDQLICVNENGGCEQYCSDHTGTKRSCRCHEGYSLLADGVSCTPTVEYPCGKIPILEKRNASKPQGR
T1 sequence 2: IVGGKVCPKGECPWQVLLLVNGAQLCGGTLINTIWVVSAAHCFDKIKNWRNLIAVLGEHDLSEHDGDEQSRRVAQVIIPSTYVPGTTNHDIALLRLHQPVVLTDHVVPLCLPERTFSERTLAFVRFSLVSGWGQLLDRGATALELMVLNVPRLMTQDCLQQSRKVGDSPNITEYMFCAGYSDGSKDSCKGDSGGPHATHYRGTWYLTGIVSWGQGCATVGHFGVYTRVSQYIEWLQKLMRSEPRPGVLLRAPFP

T2: recombinant human activated FVII (FVIIa) (human, UniProt P08709 61-212; P08709 213-466, ten glutamate residues of the Gla domain may be gamma-carboxylated)
T2 sequence 1: T1 sequence 1
T2 sequence 2: T1 sequence 2

T3: sTLT1 (SEQ ID No: 3 with six histidine residues added at the C-terminus) (human, UniProt Q86YW5 16-162)
T3 construct: Soluble TLT-1 used in SPR
T3 sequence: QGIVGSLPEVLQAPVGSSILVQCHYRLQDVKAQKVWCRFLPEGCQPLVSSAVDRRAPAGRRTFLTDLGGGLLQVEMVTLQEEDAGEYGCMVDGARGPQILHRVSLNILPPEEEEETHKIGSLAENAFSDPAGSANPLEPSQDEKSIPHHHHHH

B1: mAb0004 (antibody, V domains shown)
VH: QVQLKESGPGLVAPSQSLSITCTVSGFSLTDYGVSWIRQPPGKGLEWLGVIWGGGNTYNNSALKSRLSISKDNSKSQVFLKMNSLQADDTAMYFCAKHGYYGYVMDYWGQGTSVTVSS
VL: DIVMTQSHKIMSTLVGDRVSITCKASQDVDPAVAWYQQKPGQYPKLLIYWASTRHTGVPDRFTGSGSGTDFTLTISNVQSEDLADYFCQQYSKYPYTFGGGTKLEIK
notes: fully murine, hybridoma-derived; also called 11F19
B2: mAb0018 (antibody, V domains shown)
VH: QITLKESGPGILKPSQTLSLTCSFSGFSLSTSGLGVGWIRQTSGKGLEWLAHIWWDDDKYYYPPLKSQLTISKDTSRNQVFLKITSVDTADTATYYCARRAFYDGYYGPMEYWGQGTSVTVSS
VL: DIVLSQSPSSLAVSVGEKVTMSCKSSQSLLYSSNQKNSLAWYQHKPGQSPKLLIYWASTRESGVPDRFTGSGSGTDFTLTISNVKAEDLAVYYCHQYYNYLLTFGPGTKLELK
notes: fully murine, hybridoma-derived; also called 8F19
B3: mAb0001 (antibody, V domains shown)
VH: EIQLQQTGPELVKPGASVKISCKASGYSFTDYIMVWMKQSQGKTLEWIGKINPYYGDISYNLKFKGKATLTVDKSSSTVYMQLNSLASEDSAVYYCARGFYYDYFDQWGQGTTLTVSS
VL: DVMVTQTPLSLPVNLGDQASISCRSSQSLVHSNGNTYLHWYLQKPGQSPKLLIYRVSDRFSGVPDRFSGSGSGTDFTLKISRVEAEDLGVYFCSQSTHVPPTFGGGTKLEIK
notes: fully murine, hybridoma-derived; also called 11F26
B4: biAb0096 (bispecific antibody, human IgG4 S228P, kappa)
heavy 1: QVQLQESGPGLVEPSQTLSLTCTVSGYSITSDSAWSWIRQPPGKKLEWIGYIQYSGSTNYNPSLKSRVTISRDTSKNQFSLKLSSVTAADTAVYYCARSVNYYGNSFAVGYWGQGTLVTVSSASTKGPSVFPLAPCSRSTSESTAALGCLVKDYFPEPVTVSWNSGALTSGVHTFPAVLQSSGLYSLSSVVTVPSSSLGTKTYTCNVDHKPSNTKVDKRVESKYGPPCPPCPAPEFLGGPSVFLFPPKPKDTLMISRTPEVTCVVVDVSQEDPEVQFNWYVDGVEVHNAKTKPREEQFNSTYRVVSVLTVLHQDWLNGKEYKCKVSNKGLPSSIEKTISKAKGQPREPQVYTLPPSQEEMTKNQVSLTCLVKGFYPSDIAVEWESNGQPENNYKTTPPVLDSDGSFLLYSKLTVDKSRWQEGNVFSCSVMHEALHNHYTQKSLSLSLGK
light 1: EIVLTQSPATLSLSPGERATLSCRASQGVSDYLHWYQQKPGQAPRLLIKYASQPATGIPARFSGSGSGTDFTLTISSLEPEDFAVYYCQNGHSFPLTFGQGTKLEIKRTVAAPSVFIFPPSDEQLKSGTASVVCLLNNFYPREAKVQWKVDNALQSGNSQESVTEQDSKDSTYSLSSTLTLSKADYEKHKVYACEVTHQGLSSPVTKSFNRGEC
heavy 2: not shown
light 2: DIVMTQTPLSSPVTLGQPASISCRSSQSLVHRNGNTYFHWLQQRPGQPPRLLIYKVSNRFSGVPDRFSGSGAGTDFTLKISRVEAEDVGVYYCSQSTHVPYTFGQGTKLEIKRTVAAPSVFIFPPSDEQLKSGTASVVCLLNNFYPREAKVQWKVDNALQSGNSQESVTEQDSKDSTYSLSSTLTLSKADYEKHKVYACEVTHQGLSSPVTKSFNRGEC
notes: Duobody, constant domain type H (IgG4): anti-FVII(a) arm mAb0875, anti-TLT-1 arm mAb1047; also called mAb0875 x mAb1047
B5: biAb0098 (bispecific antibody, human IgG4 S228P, kappa)
heavy 1: B4 heavy 1 with Q1D, P41F, I49M, A89E, G110D, L117S
light 1: B4 light 1 with V29I, Q42E, A51T, F83V, A84G, Q100A, I106L
heavy 2: not shown
light 2: B4 light 2
notes: Duobody, constant domain type H (IgG4): anti-FVII(a) arm mAb0874, anti-TLT-1 arm mAb1047; also called mAb0874 x mAb1047
B6: biAb0097 (bispecific antibody, human IgG4 S228P, kappa)
heavy 1: DVQLQESGPGLVEPSQSLSLTCTVTGYSITSDSAWSWIRQFPGNKLEWMGYIQYSGSTNYNPSLKSRISVTRDTSKNQFFLRLSSVTAEDTATYYCTRSVNYYGNSFAVGYWGQGTSVTVSSASTKGPSVFPLAPCSRSTSESTAALGCLVKDYFPEPVTVSWNSGALTSGVHTFPAVLQSSGLYSLSSVVTVPSSSLGTKTYTCNVDHKPSNTKVDKRVESKYGPPCPPCPAPEFLGGPSVFLFPPKPKDTLMISRTPEVTCVVVDVSQEDPEVQFNWYVDGVEVHNAKTKPREEQFNSTYRVVSVLTVLHQDWLNGKEYKCKVSNKGLPSSIEKTISKAKGQPREPQVYTLPPSQEEMTKNQVSLTCLVKGFYPSDIAVEWESNGQPENNYKTTPPVLDSDGSFLLYSKLTVDKSRWQEGNVFSCSVMHEALHNHYTQKSLSLSLGK
light 1: B4 light 1 with V29I, Q42E, A51T, F83V, A84G, N90S, Q100A, I106L
heavy 2: not shown
light 2: B4 light 2
notes: Duobody, constant domain type H (IgG4): anti-FVII(a) arm mAb0872, anti-TLT-1 arm mAb1047; also called mAb0872 x mAb1047
B7: biAb0018 (bispecific antibody, human IgG4 S228P, kappa)
heavy 1: B4 heavy 1 with Q1D, P41F, I49M, A89E, G110D, L117S
light 1: B4 light 1 with V29I, Q42E, A51T, F83V, A84G, Q100A, I106L
heavy 2: not shown
light 2: B4 light 2 with N33P
notes: Duobody, constant domain type H (IgG4): anti-FVII(a) arm mAb0874, anti-TLT-1 arm mAb1038; also called mAb0874 x mAb1038
B8: biAb0012 (bispecific antibody, human IgG4 S228P, kappa)
heavy 1: B6 heavy 1
light 1: B4 light 1 with V29I, Q42E, A51T, F83V, A84G, N90S, Q100A, I106L
heavy 2: not shown
light 2: B4 light 2 with N33Q
notes: Duobody, constant domain type H (IgG4): anti-FVII(a) arm mAb0872, anti-TLT-1 arm mAb1076; also called mAb0872 x mAb1076
B9: biAb0013 (bispecific antibody, human IgG4 S228P, kappa)
heavy 1: B4 heavy 1 with Q1D, P41F, I49M, A89E, G110D, L117S
light 1: B4 light 1 with V29I, Q42E, A51T, F83V, A84G, Q100A, I106L
heavy 2: not shown
light 2: B4 light 2 with N33Q
notes: Duobody, constant domain type H (IgG4): anti-FVII(a) arm mAb0874, anti-TLT-1 arm mAb1076; also called mAb0874 x mAb1076
B10: biAb0093 (bispecific antibody, human IgG4 S228P, kappa)
heavy 1: B4 heavy 1 with Q1D, P41F, I49M, A89E, G110D, L117S
light 1: B4 light 1 with V29I, Q42E, A51T, F83V, A84G, Q100A, I106L
heavy 2: not shown
light 2: B4 light 2
notes: Duobody, constant domain type H (IgG4): anti-FVII(a) arm mAb0874, anti-TLT-1 arm mAb1049; also called mAb0874 x mAb1049
B11: biAb0017 (bispecific antibody, human IgG4 S228P, kappa)
heavy 1: B6 heavy 1
light 1: B4 light 1 with V29I, Q42E, A51T, F83V, A84G, N90S, Q100A, I106L
heavy 2: not shown
light 2: B4 light 2 with N33P
notes: Duobody, constant domain type H (IgG4): anti-FVII(a) arm mAb0872, anti-TLT-1 arm mAb1038; also called mAb0872 x mAb1038
B12: biAb0092 (bispecific antibody, human IgG4 S228P, kappa)
heavy 1: B6 heavy 1
light 1: B4 light 1 with V29I, Q42E, A51T, F83V, A84G, N90S, Q100A, I106L
heavy 2: not shown
light 2: B4 light 2
notes: Duobody, constant domain type H (IgG4): anti-FVII(a) arm mAb0872, anti-TLT-1 arm mAb1049; also called mAb0872 x mAb1049

The target of the first experiment is T1, recombinant human activated Factor VII …. Description: cell-based or functional assay.
B1: the “AT inhibition (kinh %)” value is 24% and the “TGT activity (% FVIIa)” value was 75 % FVIIa.
With B2, the “AT inhibition (kinh %)” value is 525% and the “TGT activity (% FVIIa)” value came to 141 % FVIIa.
Regarding B3, the “AT inhibition (kinh %)” value was determined as 82% and the “TGT activity (% FVIIa)” value stood at 109 % FVIIa.

The next experiment deals with T2, recombinant human activated FVII (FVIIa). Description: cell-based or functional assay.
Take B4: the “Stimulation (fold): FXa generated by FVIIa with lipidated TLT-1 and 100 nM biAb, relative to free FVIIa” value (“Stimulation (fold) … relative to free FVIIa” below) amounted to 12.4 fold.
B5: the “Stimulation (fold) … relative to free FVIIa” value was determined as 15.3 fold.
As to B6, the “Stimulation (fold) … relative to free FVIIa” value stood at 17.4 fold.
Consider B7, for which the “Stimulation (fold) … relative to free FVIIa” value is 12.8 fold.
Regarding B8, the “Stimulation (fold) … relative to free FVIIa” value was determined as 22.1 fold.
Turning to B9, the “Stimulation (fold) … relative to free FVIIa” value stood at 16 fold.
The same measure, in the same setting: next, B10: 9.6 fold.
On the same count and under the same terms, next, B11: 13.6 fold; B12: 11.2 fold.

The target is the same in a further experiment. The experiment in a line: dissociation constant listed with the stimulatory activities; method not given.
Consider B4, for which the Kd (usually the equilibrium constant for the complex coming apart) turned out to be 0.28 nM.
The same measure, in the same setting: next, B5: 16.2 nM; B6: 2.2 nM.
As for B7, the dissociation constant (Kd) stood at 16.2 nM.
The same measure, in the same setting: next, B8: 2.2 nM; B9: 16.2 nM.
As to B10, the dissociation constant Kd is 16.2 nM.
Same read-out and setting: next, B11: 2.2 nM; B12: 2.2 nM.

The target of a further experiment is T1, recombinant human activated Factor VII …. The experiment in a line: SPR (Biacore T200), antibody captured on anti-murine IgG, FVIIa injected at 5-135 nM, 1:1 model. On the procedure:
Anti-murine IgG (by GE Healthcare) was immobilised on a CM4 sensor chip using standard amine coupling chemistry kit (both supplied by GE Healthcare). […] The running buffer was prepared by diluting 10-fold the 10×HBS-P buffer (supplied by GE Healthcare) and supplemented with 1 mg/ml BSA and 5 mM CaCl₂) to give 10 mM HEPES, 150 mM NaCl, 0.05% v/v Polysorbate 20(P20), pH 7.4, 5 mM CaCl₂), 1 mg/ml bovine serum albumin (BSA). […] Regeneration of the chip was achieved using regeneration buffer consisting of 10 mM Gly-HCl pH 1.7 (supplied by GE Healthcare). Binding data were analysed according to a 1:1 model using BiaEvaluation 4.1 supplied by the manufacturer (Biacore AB, Uppsala, Sweden).
Regarding B1, the Kd was 0.16 nM.
Take B2: the Kd was 9.3 nM.
On the same count and under the same terms, next, B3: 0.17 nM.

In the next experiment the target is T3, sTLT1 (SEQ ID No: 3 with six histidine …). Description: dissociation constant listed with the stimulatory activities; value of the anti-TLT-1 arm.
Regarding B4, the Kd came to 75 nM.
As to B5, the affinity, expressed as Kd, was 75 nM.
The same measure, in the same setting: next, B6: 75 nM; B7: 19 nM; B8: 2.9 nM.
Same read-out and setting: next, B9: 2.9 nM.
Still for that read-out and setting: next, B10: 320 nM; B11: 19 nM.
B12 gave a Kd of 320 nM.
